Source: patent US20050014224A1 (Pfizer, published 2005)

B1: mouse GITRL expressed on cells (ligand)
chain: MEEMPLRESSPQRAERCKKSWLLCIVALLLMLLCSLGTLIYTSLKPTAIESCMVKFELSSSKWHMTSPKPHCVNTTSDGKLKILQSGTYLIYGQVIPVDKKYIKDNAPFVVQIYKKNDVLQTLMNDFQILPIGGVYELHAGDNIYLKFNSKDHIQKNNTYWGIILMPDLPFIS
B2: mouse GITR (glucocorticoid-induced TNF receptor) (receptor, UniProt O35714 20-228, looked up)
chain: QPSVVEEPGCGPGKVQNGSGNNTRCCSLYAPGKEDCPKERCICVTPEYHCGDPQCKICKHYPCQPGQRVESQGDIVFGFRCVACAMGTFSAGRDGHCRLWTNCSQFGFLTMFPGNKTHNAVCIPEPLPTEQYGHLTVIFLVMAACIFFLTTVQLGLHIWQLRRQHMCPRETQPFAEVQLSAEDACSFQFPEEERGEQTEEKCHLGGRWP
notes: whole, on cells; endogenous on mouse T cells and HT-2 cells in the functional assays; also called cell-surface GITR

Legend:
[1] = molecular target: mouse GITRL expressed on cells (mouse) (UniProt Q7TS55); test: flow cytometry on GITRL-Cos cells, FITC donkey antihuman antibody
[2] = molecular target: B2; test: cell-based or functional assay
[3] = molecular target: T1, control mouse IL-21 receptor fused to the FLAG epitope, expressed on Cos cells (mouse, UniProt Q9JHX3 20-529); test: cell-cell binding by flow cytometry (PE anti-FLAG / FITC anti-GITR)
T1 construct: whole, on cells; also called IL-21R-Flag-Cos
Description: Cell-cell interaction was detected by flow cytometry using phycoerythrin-labeled anti-Flag antibody (PE-FLAG) and fluorescein isothiocyanate (FITC)-labeled anti-GITR.

T1 sequence (Q9JHX3 20-529): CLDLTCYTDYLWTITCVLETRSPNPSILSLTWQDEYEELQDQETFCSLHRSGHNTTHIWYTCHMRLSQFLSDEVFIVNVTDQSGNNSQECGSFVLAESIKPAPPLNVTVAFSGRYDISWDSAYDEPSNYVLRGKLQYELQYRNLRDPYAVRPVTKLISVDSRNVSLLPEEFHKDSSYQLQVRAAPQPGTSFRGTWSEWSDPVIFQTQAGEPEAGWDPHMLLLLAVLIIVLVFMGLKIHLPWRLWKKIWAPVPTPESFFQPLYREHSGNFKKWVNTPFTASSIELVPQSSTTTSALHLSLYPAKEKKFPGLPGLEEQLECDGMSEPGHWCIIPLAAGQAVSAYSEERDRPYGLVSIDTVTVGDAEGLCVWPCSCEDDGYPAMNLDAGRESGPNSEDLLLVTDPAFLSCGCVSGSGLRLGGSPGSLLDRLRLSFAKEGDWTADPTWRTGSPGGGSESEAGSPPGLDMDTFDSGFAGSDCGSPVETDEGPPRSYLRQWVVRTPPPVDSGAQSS

An FITC-Ab binding [1] of 7.9% was found for control human IgG (antibody) in this work.

An FITC-Ab binding [1] of 28.8% and a fold increase in FITC-Ab binding compared to control HIgG [1] of 3.6 fold were found for “recombinant GITR fused to the Fc portion of human IgG (Fc fusion)” in this work.

With B1 the “^3H-thymidine incorporation of CD4^+CD25^+ T cells, fold increase over unmodified YB2/0 cells (˜50,000 cells)” value [2] was ~15 fold.

B2: no binding [3].
